Assay results: patent US20200239541A1 (XYPHOS BIOSCIENCES, published 2020)

Columns and labels:
Fc-NKG2D.Y152A [1] = biological target: T1, Fc-NKG2D.Y152A (human); assay: ELISA of rituximab-MicAbodies
T1 construct: also called eNKG2D A|Y; Fc-NKG2D.YA

[2] = biological target: T2, Y152A mutant NKG2D ectodomain (His-avitag, biotinylated) (human); assay: ELISA, ligand-Fc coated, biotinylated NKG2D titrated
T2 construct: also called Y152A non-natural NKG2D receptor; not shown: N-terminal His-avitag
T2 chain: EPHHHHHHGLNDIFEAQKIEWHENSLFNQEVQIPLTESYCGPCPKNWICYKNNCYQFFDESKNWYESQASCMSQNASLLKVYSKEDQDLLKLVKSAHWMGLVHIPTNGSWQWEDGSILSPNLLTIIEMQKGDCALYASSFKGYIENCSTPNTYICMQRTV
Protocol: (§1) In addition to purifying the above 3 Fc-fusion proteins NKG2D ligand-Fc fusion proteins MICB-Fc, ULBP1-Fc, ULBP2-Fc, ULBP3-Fc, and ULBP4-Fc were purchased from R&D Systems, Inc. (Minneapolis, Minn.). Binding of the different α1-α2 domain-Fc fusions to both natural and non-natural NKG2D ectodomain proteins was analyzed using a plate-based ELISA method. All of the natural and non-natural α1-α2 domain-Fc fusions were coated overnight at 4° C. onto separate wells of Maxisorp 96 well plates using a coating concentration of 2 μg/ml in phosphate-buffered saline (PBS). The plates were washed 3-times in PBS/0.05% Tween20 at 20-22° C., and blocked with 0.5% bovine serum albumin for 2 hours. The biotinylated natural and non-natural NKG2D receptor proteins were titrated against the plate-bound NKG2D ligands for 2 hours at 20-22° C., washed 3 times with PBS/0.05% Tween20 at 20-22° C., and the bound NKG2D proteins subsequently detected using a streptavidin-HRP secondary detection step and developed with 1-Step Ultra TMB Elisa.

[3] = biological target: T3, Y199A mutant NKG2D ectodomain (His-avitag, biotinylated) (human); assay: as above
T3 construct: not shown: N-terminal His-avitag
T3 chain: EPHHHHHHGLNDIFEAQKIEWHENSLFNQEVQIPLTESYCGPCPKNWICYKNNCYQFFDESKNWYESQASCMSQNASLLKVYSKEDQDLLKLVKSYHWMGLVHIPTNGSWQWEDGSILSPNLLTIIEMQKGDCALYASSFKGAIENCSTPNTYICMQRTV
Protocol: as §1

[4] = biological target: T4, double Y152A plus Y199A mutant NKG2D ectodomain (His-avitag, biotinylated) (human); assay: as above
T4 construct: not shown: N-terminal His-avitag
T4 chain: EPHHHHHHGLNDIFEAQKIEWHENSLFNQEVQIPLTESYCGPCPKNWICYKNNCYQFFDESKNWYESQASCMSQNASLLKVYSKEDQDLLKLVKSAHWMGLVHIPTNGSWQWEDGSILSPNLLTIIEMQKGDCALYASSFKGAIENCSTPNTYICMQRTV
Protocol: as §1

Fc-NKG2D.wt [5] = biological target: T5, Fc-NKG2D.wt (human); assay: ELISA (called Kd in the text)
T5 construct: also called NKG2D.wt Y|Y; natural Fc-NKG2D
Protocol: (§2) The binding affinities of α1-α2 variants to the extracellular domains of natural (wild-type) NKG2D and non-natural eNKG2D proteins were analyzed using a plate-based ELISA method. Each of the SEC fractionated natural Fc-NKG2D and non-natural Fc-eNKG2D fusions were coated overnight at 4° C. onto separate wells of Nunc Maxisorp 96 well plates (Thermo Fisher Scientific, Waltham, Mass.) using a coating concentration of 1 μg/mL in phosphate-buffered saline (PBS). The plates were washed three times in PBS/0.05% Tween-20 (PBS-T) at 20-22° C., and blocked with 0.5% bovine serum albumin in PBS (PBS-B) for 2 hours at 20-22° C. MicAbodies were titrated against the plate-bound natural or non-natural Fc-NKG2D fusions for 60 minutes at 20-22° C. in PBS/0.5% bovine serum albumin (BSA)/0.05% Tween-20 (PBS-BT), washed 3 times with PBS-T at 20-22° C., and the bound bispecific proteins detected using an HRP-conjugated anti-human kappa in PBS-BT (Abcam, Cambridge Mass.) and developed with 1-Step™ Ultra TMB ELISA Substrate Solution (Thermo Fisher Scientific, Waltham, Mass.).

Fc-NKG2D.wt [6] = biological target: T5, Fc-NKG2D.wt; assay: ELISA, Fc-NKG2D coated, MicAbody titrated from 300 nM
Protocol: as §2

Fc-eNKG2D2 (Y152S) = biological target: T6, Fc-eNKG2D2 (Y152S) (human); assay: as above
T6 construct: also called eNKG2D2 S|Y; not shown: human IgG1 Fc (without Fab domains)
Protocol: as §2

Fc-eNKG2D3 (Y152T) = biological target: T7, Fc-eNKG2D3 (Y152T) (human); assay: as above
T7 construct: also called eNKG2D3 T|Y
Protocol: as §2

Fc-eNKG2D4 (Y152V) = biological target: T8, Fc-eNKG2D4 (Y152V) (human); assay: as above
T8 construct: also called eNKG2D4 V|Y
Protocol: as §2

Fc-eNKG2D14 (Y152L) = biological target: T9, Fc-eNKG2D14 (Y152L) (human); assay: as above
T9 construct: also called eNKG2D14 L|Y
Protocol: as §2

Fc-eNKG2D5 (Y152A/Y199F) [7] = biological target: T10, Fc-eNKG2D5 (Y152A/Y199F) (human); assay: ELISA, Fc-eNKG2D coated, MicAbody titrated from 300 nM
T10 construct: also called eNKG2D5 A|F; Fc-NKG2D.AF
Protocol: as §2

Fc-eNKG2D6 (Y152L/Y199F) = biological target: T11, Fc-eNKG2D6 (Y152L/Y199F) (human); assay: as above
T11 construct: also called eNKG2D6 L|F
Protocol: as §2

Fc-eNKG2D7 (Y152S/Y199F) = biological target: T12, Fc-eNKG2D7 (Y152S/Y199F) (human); assay: as above
T12 construct: also called eNKG2D7 S|F
Protocol: as §2

Fc-eNKG2D8 (Y152T/Y199F) = biological target: T13, Fc-eNKG2D8 (Y152T/Y199F) (human); assay: as above
T13 construct: also called eNKG2D8 T|F
Protocol: as §2

Fc-eNKG2D9 (Y152V/Y199F) = biological target: T14, Fc-eNKG2D9 (Y152V/Y199F) (human); assay: as above
T14 construct: also called eNKG2D9 V|F
Protocol: as §2

[8] = biological target: T15, Fc-eNKG2D12 (Y152D/Y199D) (human); assay: as above
T15 construct: also called eNKG2D12 D|D
Protocol: as §2

[9] = biological target: T16, Fc-eNKG2D13 (Y152E/Y199E) (human); assay: as above
T16 construct: also called eNKG2D13 E|E
Protocol: as §2

Fc-NKG2D.wt [10] = biological target: T5, Fc-NKG2D.wt; assay: ELISA of rituximab-MicAbodies
Fc-eNKG2D5 (Y152A/Y199F) [11] = biological target: T10, Fc-eNKG2D5 (Y152A/Y199F); assay: ELISA of rituximab-MicAbodies
Fc-NKG2D.Y152A [12] = biological target: T1, Fc-NKG2D.Y152A; assay: ELISA and Octet, bispecific antibody fused format

T10 sequence (chain, as listed by the source Y152A Y199F Y152A Y199F limits assumed): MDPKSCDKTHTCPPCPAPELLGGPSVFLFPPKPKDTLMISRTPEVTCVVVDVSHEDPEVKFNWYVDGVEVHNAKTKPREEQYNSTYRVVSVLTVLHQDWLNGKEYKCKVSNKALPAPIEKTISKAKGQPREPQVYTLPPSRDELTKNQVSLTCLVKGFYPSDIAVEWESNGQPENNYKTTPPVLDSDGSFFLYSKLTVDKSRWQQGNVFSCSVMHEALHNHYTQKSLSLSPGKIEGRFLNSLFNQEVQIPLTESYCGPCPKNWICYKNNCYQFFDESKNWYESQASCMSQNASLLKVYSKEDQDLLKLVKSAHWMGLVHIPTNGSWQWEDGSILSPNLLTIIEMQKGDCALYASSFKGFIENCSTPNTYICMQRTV
T15 sequence (chain, as listed by the source Y152D Y199D Y152D Y199D limits assumed): as the sequence (chain, as listed by the source Y152A Y199F Y152A Y199F limits assumed) above, with A312D, F359D counted along it
T13 sequence (chain, as listed by the source Y152T Y199F Y152T Y199F limits assumed): as the sequence (chain, as listed by the source Y152A Y199F Y152A Y199F limits assumed) above, with A312T counted along it
T11 sequence (chain, as listed by the source Y152L Y199F Y152L Y199F limits assumed): as the sequence (chain, as listed by the source Y152A Y199F Y152A Y199F limits assumed) above, with A312L counted along it
T16 sequence (chain, as listed by the source Y152E Y199E Y152E Y199E limits assumed): as the sequence (chain, as listed by the source Y152A Y199F Y152A Y199F limits assumed) above, with A312E, F359E counted along it
T12 sequence (chain, as listed by the source Y152S Y199F Y152S Y199F limits assumed): as the sequence (chain, as listed by the source Y152A Y199F Y152A Y199F limits assumed) above, with A312S counted along it
T14 sequence (chain, as listed by the source Y152V Y199F Y152V Y199F limits assumed): as the sequence (chain, as listed by the source Y152A Y199F Y152A Y199F limits assumed) above, with A312V counted along it

B1: rituximab-ULBP2.R MicAbody (bispecific antibody, human IgG1, kappa)
heavy: not shown
light: QIVLSQSPAILSASPGEKVTMTCRASSSVSYIHWFQQKPGSSPKPWIYATSNLASGVPVRFSGSGSGTSYSLTISRVEAEDAATYYCQQWTSNPPTFGGGTKLEIKTVAAPSVFIFPPSDEQLKSGTASVVCLLNNFYPREAKVQWKVDNALQSGNSQESVTEQDSKDSTYSLSSTLTLSKADYEKHKVYACEVTHQGLSSPVTKSFNRGECAPTSSSGGGGSEPHSLSYDITVIPKFRPGPRWCAVQGQVDEKTFLHYDCGNKTVTPVSPLGKKLNVTTAWKAQNPVLREVVDILTEQLWDIQLENYTPKEPLTLQARMSCEQKAEGHSSGSWQFSFDGQIFLLFDSEKRMWTTVHPGARKMKEKWENDKVVATLLWGWSMGDCIGWLEDFLMGMDSTLEPS
notes: also called rituximab-MicAbody with ULBP2 variant R
binding result (Fc-NKG2D.Y152A [1]): no binding

B2: MICA-Fc (α1-α2-α3-Fc fusion, made in 293 cells) (Fc fusion)
chain: EPHSLRYNLTVLSWDGSVQSGFLTEVHLDGQPFLRCDRQKCRAKPQGQWAEDVLGNKTWDRETRDLTGNGKDLRMTLAHIKDQKEGLHSLQEIRVCEIHEDNSTRSSQHFYYDGELFLSQNLETKEWTMPQSSRAQTLAMNVRNFLKEDAMKTKTHYHAMHADCLQELRRYLKSGVVLRRTVPPMVNVTRSEASEGNITVTCRASGFYPWNITLSWRQDGVSLSHDTQQWGDVLPDGNGTYQTWVATRISQGEEQRFTCYMEHSGNHSTHPVPSGKIEGRMDPKSCDKTHTCPPCPAPELLGGPSVFLFPPKPKDTLMISRTPEVTCVVVDVSHEDPEVKFNWYVDGVEVHNAKTKPREEQYNSTYRVVSVLTVLHQDWLNGKEYKCKVSNKALPAPIEKTISKAKGQPREPQVYTLPPSRDELTKNQVSLTCLVKGF
binding result [2]: no binding | binding result [3]: no binding | binding result [4]: no binding

B3: ULBP2.wt rituximab-MicAbody (bispecific antibody, human IgG1, kappa)
heavy: not shown
light: QIVLSQSPAILSASPGEKVTMTCRASSSVSYIHWFQQKPGSSPKPWIYATSNLASGVPVRFSGSGSGTSYSLTISRVEAEDAATYYCQQWTSNPPTFGGGTKLEIKRTVAAPSVFIFPPSDEQLKSGTASVVCLLNNFYPREAKVQWKVDNALQSGNSQESVTEQDSKDSTYSLSSTLTLSKADYEKHKVYACEVTHQGLSSPVTKSFNRGECAPTSSSGGGGSEPHSLSYDITVIPKFRPGPRWCAVQGQVDEKTFLHYDCGNKTVTPVSPLGKKLNVTTAWKAQNPVLREVVDILTEQLRDIQLENYTPKEPLTLQARMSCEQKAEGHSSGSWQFSFDGQIFLLFDSEKRMWTTVHPGARKMKEKWENDKVVAMSFHYFSMGDCIGWLEDFLMGMDSTLEPS
notes: also called ULBP2 MicAbody
EC50 (Fc-NKG2D.wt [5]): 1.4 nM | EC50 (Fc-NKG2D.wt [6]): 1.41 nM | EC50 (Fc-eNKG2D2 (Y152S)): 34.8 nM | EC50 (Fc-eNKG2D3 (Y152T)): 31.1 nM | EC50 (Fc-eNKG2D4 (Y152V)): 35.8 nM | EC50 (Fc-eNKG2D14 (Y152L)): 87.6 nM | binding result (Fc-eNKG2D5 (Y152A/Y199F) [7]): no binding (tested: 300 nM) | binding result (Fc-eNKG2D6 (Y152L/Y199F)): no binding (tested: 300 nM) | binding result (Fc-eNKG2D7 (Y152S/Y199F)): no binding (tested: 300 nM) | binding result (Fc-eNKG2D8 (Y152T/Y199F)): no binding (tested: 300 nM) | binding result (Fc-eNKG2D9 (Y152V/Y199F)): no binding (tested: 300 nM) | binding result [8]: no binding (tested: 300 nM) | binding result [9]: no binding (tested: 300 nM)

B4: rituximab-ULBP2.S3 MicAbody (bispecific antibody, human IgG1, kappa)
heavy: not shown
light: QIVLSQSPAILSASPGEKVTMTCRASSSVSYIHWFQQKPGSSPKPWIYATSNLASGVPVRFSGSGSGTSYSLTISRVEAEDAATYYCQQWTSNPPTFGGGTKLEIKRTVAAPSVFIFPPSDEQLKSGTASVVCLLNNFYPREAKVQWKVDNALQSGNSQESVTEQDSKDSTYSLSSTLTLSKADYEKHKVYACEVTHQGLSSPVTKSFNRGECAPTSSSGGGGSEPHSLSYDITVIPKFRPGPRWCAVQGQVDEKTFLHYDCGNKTVTPVSPLGKKLNVTTAWKAQNPVLREVVDILTEQLWDIQLENYTPKEPLTLQARMSCEQKAEGHSSGSWQFSFDGQIFLLFDSEKRMWTTVHPGARKMKEKWENDKVVATKLYLWSMGDCIGWLEDFLMGMDSTLEPS
notes: also called ULBP2.S3 as a MicAbody
binding result (Fc-NKG2D.wt [10]): no binding | binding result (Fc-eNKG2D5 (Y152A/Y199F) [11]): no binding | binding result (Fc-NKG2D.Y152A [12]): binds
